Test [1] deals with B16 cells. The experiment in a line: Cell growth inhibition assay, live cells by trypan blue exclusion. It is filed as cell-based, murine. Particulars: 48 h later, vs pIRES-EGFP. As to the method: Cell growth inhibition assay. Cells were plated at 1.7×10^5 cells/well in 6-well plates, followed by transfection with either pIRES-EGFP or pIRES-Stat3β plasmids 24 h later. Cells were harvested at 24 h, 48 h or 72 h to determine the numbers of live cells. Cell viability was determined by trypan blue exclusion.
(§1) This G0/G1 phase arrest was observed as early as 24 hourspost transfection. At 48 hours post transfection with Stat3β vector, Annexin V-PE staining followed by FACS analysis to detect apoptotic activity was performed with transfected B16 cells. A high level of apoptosis in Stat3β transfected cells (75%) relative to empty vector transfected cells (25%) was observed, as shown in FIG. 2C. Increased levels of apoptosis as a result of Stat3β transfection was confirmed by confocal laser scanning microscope analysis using rhodamine-labelled TUNEL assay.

The test system of test [2] is B16 cells. The experiment in a line: Cell cycle analysis by propidium iodide staining and FACS. It is filed as cell-based, murine. Particulars: transfected B16 cells, from 24 hours post transfection. As to the method:
Cell cycle analysis. Cell cycle analysis based on DNA content was performed. Cells were harvested, washed twice in PBS and resuspended in 70% ethanol on ice for at least 30 min. After centrifugation, cells were resuspended in 1 ml of propidium iodide staining solution (50 μg propidium iodide, 1 mg RNase A and 1 mg glucose per ml PBS) and incubated at room temperature for 30 min. The cells were analyzed by FACS using ModFit LT cell cycle analysis software (Verity Software, Topsham, Me.). Cells transfected with vectors encoding EGFP were fixed in 1 ml of 0.5% formaldehyde on ice for 10 min. before adding 70% ethanol.
as §1

For test [3], the system named is TRAIL. The experiment in a line: RNase protection assay with multi-template probes for regulators of apoptosis. It counts as cell-based, murine. To be noted: B16 cells, thirty hours after transfection. As for the experimental part: FIG. 4. Stat3β overexpression in B16 cells results in induction of TRAIL mRNA expression. Ten μg of total cellular RNAs isolated from B16 (lanes 1 and 4), and B16 transfected with either pIRES-EGFP (lanes 2 and 5) or pIRES-Stat3β (lanes 3 and 6) were hybridized with each multiple probe before digestion with RNase. Separation of protected fragments was achieved by gel electrophoresis. Fragment assignment was determined by migration relative to internal standards. Induction of TRAIL RNA was confirmed by two additional RPA analyses.
RNA isolation and RNase protection assay. Total RNA was isolated from 5.0×10^6 cells by TRIzol reagent (Gibco BRL, Grand Island, N.Y.). RNase protection assays (RPA) were carried out using the PharMingen Riboquant mAPO-3 (TRAIL, FasL, CD95, and other death receptor associated genes) and mAPO-2 (Bcl-2 family members) multi-probe templates according to the manufacturer's protocol (PharMingen, San Diego, Calif.). Briefly, the multi-probe template was synthesized by in vitro transcription with incorporation of [^32P]-α UTP and purified on a G50 Sephadex column (5-Prime to 3-Prime, Boulder, Colo.). Specific activity was quantitated in a Beckman LS 6500 scintillation counter (Beckman, Schaumburg, Ill.). […] Protected RNA fragments were separated on a 5% polyacrylamide denaturing gel and quantified with Image Quant software (Molecular Dynamics, Sunnyvale, Calif.). […]

Test [4] deals with B16 tumors. The experiment in a line: Stat3β gene therapy of established B16 tumors in mice. It is filed as in vivo. Particulars: for tumor growth: ten to fifteen percent of tumor cells transfected in vivo. As to the method:
Mice. Six- to eight-week old female C57/B6 mice were obtained from the National Cancer Institute (Frederick, Md.). Cohorts of 3-5 mice per group were used for these experiments. To induce tumor, mice were shaved on the left flank and injected s.c. with 5×10^5 of B16 cells in 100 μl of PBS. Gene therapy with Stat3β of established B16 tumors was described previously [Niu, 1999 #72].
Antibody staining of iNOS in B16 tumors. 3 μm paraffin sections were deparaffinized and endogenous peroxidase was blocked with 3% aqueous hydrogen peroxide. To minimize non-specific binding, the sections were incubated for 20 min in normal goat serum in PBS, followed by overnight incubation at 4° C. with rabbit anti-iNOS polyclonal antibody (Transduction Laboratories). After washing with PBS, sections were incubated for 2 min with diaminobenzidine tetrahydrochloride, rinsed with tap water and counterstained with modified Mayer's hematoxylin. Sections were dehydrated, cleared and mounted. Peritoneal macrophages and neutrophils.
Tissue sections from control vector-treated and Stat3β-treated tumors were stained with H&E and anti-iNOS antibodies.

Test [5] relates to VEGF promoter. The experiment in a line: VEGF promoter luciferase reporter in B16 and SCK tumor cells. It is filed as cell-based. To be noted: B16 and SCK murine tumor cells, co-transfection. An excerpt:
FIG. 12A-B. Blocking Stat3 signaling in tumor cells inhibits VEGF promoter activity. Both B16 (A) and SCK (B) murine tumor cells were transfected with constructs containing the luciferase cDNA in the absence (pluc) or presence of the VEGF promoter (VEGF).
(§2) A plasmid construct containing the luciferase cDNA in the absence of the VEGF promoter was also transfected into 3T3 fibroblasts. Both of B16 and SCK tumor cells harbor constitutively activated Stat3. In the absence of Stat3β, VEGF promoter activity was readily detectable in both tumor cells as indicated by the high expression levels of luciferase protein. […] The inhibitory effect of Stat3β on the transcriptional activity of the VEGF promoter was also observed in the tumor cells transfected with Stat3 anti-sense oligonucleotides (FIG. 12A-B). It was also shown that blocking Stat3 signaling in tumor cells inhibits the expression of the endogeneous VEGF gene. B16 tumor cells were transiently transfected with Stat3β and the expression of endogeneous VEGF gene was determined at the RNA and protein levels.
Background: A reporter such as luciferase makes a cellular process visible.

Test [6] deals with VEGF. The experiment in a line: Expression of the endogeneous VEGF gene in B16 tumor cells (Western blot). It is filed as cell-based, murine. Particulars: ASO at 100 nM, 200 nM, or 300 nM. As for the experimental part: FIG. 13. Inhibition of Stat3 signaling in tumor cells reduces the expression of the endogeneous VEGF gene. B16 tumor cells were transfected with either: A. Stat3β; or B. Stat3 anti-sense oligonucleotides (ASO) at 100 nM, 200 nM, or 300 nM.
as §2
On the technique in general: A western blot detects proteins with antibodies after separation by electrophoresis.

The subject of test [7] is U266 cells. Particulars: cited from earlier work.

Data on one molecule can be found in US20090227489A1, “STAT3 Agonists and Antagonists and Therapeutic Uses Thereof” (Johns Hopkins University, priority 2000, published 2009).

B1: Stat3β: dominant-negative Stat3 variant, truncated form lacking the transactivation domain; delivered by the pIRES-Stat3β expression vector (protein)
chain: AQWNQLQQLDTRYLEQLHQLYSDSFPMELRQFLAPWIESQDWAYAASKESHATLVFHNLLGEIDQQYSRFLQESNVLYQHNLRRIKQFLQSRYLEKPMEIARIVARCLWEESRLLQTAATAAQQGGQANHPTAAVVTEKQQMLEQHLQDVRKRVQDLEQKMKVVENLQDDFDFNYKTLKSQGDMQDLNGNNQSVTRQKMQQLEQMLTALDQMRRSIVSELAGLLSAMEYVQKTLTDEELADWKRRQQIACIGGPPNICLDRLENWITSLAESQLQTRQQIKKLEELQQKVSYKGDPIVQHRPMLEERIVELFRNLMKSAFVVERQPCMPMHPDRPLVIKTGVQFTTKVRLLVKFPELNYQLKIKVCIDKDSGDVAALRGSRKFNILGTNTKVMNMEESNNGSLSAEFKHLTLREQRCGNGGRANCDASLIVTEELHLITFETEVYHQGLKIDLETHSLPVVVISNICQMPNAWASILWYNMLTNNPKNVNFFTKPPIGTWDQVAEVLSWQFSSTTKRGLSIEQLTTLAEKLLGPGVNYSGCQITWAKFCKENMAGKGFSFWVWLDNIIDLVKKYILALWNEGYIMGFISKERERAILSTKPPGTFLLRFSESSKEGGVTFTWVEKDISGKTQIQSVEPYTKQQLNNMSFAEIIMGYKIMDATNILVSPLVYLYPDIPKEEAFGKYCRPESQEHPEADPGAAPYLKTKFICVTFIDAVWK
As for B1, the “number of live B16 cells” value in test [1] was “decreases dramatically”. The cell cycle distribution result in test [2] is “progressive accumulation in G0/G1 phase”. For the same molecule, the “TRAIL RNA expression” value in test [3] is “induction of TRAIL RNA expression”. Also, in test [4] (B16 tumors), the “apoptosis of tumor cells in vivo” value is “massive apoptosis of B16 tumor cells” and the tumor growth result is listed as “complete regression of tumors”. Moreover, the tumor growth result in test [4] (B16 tumors, listed as Stat30) is “inhibition of tumor growth and tumor regression”. Moreover, in test [4] (H&E staining, vs control vector-treated tumors), the “infiltration of inflammatory cells (neutrophils, macrophages, T cells)” value is given as “dramatic increase in number of inflammatory cells”. The “iNOS expression in tumor-infiltrating macrophages” value in test [4] (anti-iNOS antibody staining) is reported as “induction of iNOS gene expression in the tumor-infiltrating macrophages”. The “transcriptional activity of the VEGF promoter (luciferase)” value in test [5] is reported as “greatly inhibited”. For the same molecule, the “expression of the endogeneous VEGF gene” value in test [6] is recorded as “downregulates expression of the endogeneous VEGF gene”. Besides, the “expression of the Bcl-XL gene” value in test [7] is on record as “down-regulated expression of the Stat3-regulated Bcl-XL gene”. Also, in test [7] (in vitro), the “sensitization to Fas-mediated apoptosis” value is “dramatic sensitization of cells to Fas-mediated apoptosis”.
